We go through two molecules from patent US9932390 (SHRINERS HOSPITAL FOR CHILDREN, dated 2018).

Positions of bridges follow the written chain, without caps; N, C: chain ends. Chains are numbered I, II in the order given. No end group written: not given here.

Series [1] has as its target T1, α3NC2-(GPP)5CC (human, not fully specified; chain 1: Cys60 and Cys61 (collagen III cystine knot) form interchain disulfides in the oxidized trimer. Cys15 is also counted as oxidized in the calculated trimer mass.).
T1 construct: Mixed and reoxidized as a His-tagged thioredoxin fusion, then characterized after thrombin cleavage as part of α123NC2-(GPP)5CC; also called Trx_α3NC2-(GPP)5CC (before thrombin cleavage)
T1 peptide: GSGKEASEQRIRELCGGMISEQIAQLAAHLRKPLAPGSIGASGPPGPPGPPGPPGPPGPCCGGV
Kind of series: oxidative folding of the three Trx fusions, non-reducing SDS-PAGE. The protocol:
Initially the purified constructs either with or without collagenous part were folded under the same oxidative conditions. The three chains of approximately equal concentrations were mixed, diluted with water and the buffer was adjusted to 100 mM Tris/HCl buffer, pH 8.6, containing 15 mM Na-phosphate, 150 mM NaCl, 150 mM imidazol, 10 mM reduced glutathione, 1 mM oxidized glutathione at 25° C. Final concentration of each chain was ~10 µM. The solution was sequentially incubated at 37° C. for 24 hours, at 30° C. for 24 hours, 25° C. for 24 hours and the pH value was periodically checked and adjusted to be not lower than 8.3. Finally, the solution was extensively dialyzed against 50 mM Tris/HCl buffer, pH 8, containing 150 mM NaCl, at room temperature to remove imidazol and reducing agents.
1.11.3. Results: Initial Purification of Fusion Proteins Trx_α1NC2-(GPP)_5C, Trx_α2NC2-(GPP)_5CC and Trx_α3NC2-(GPP)5CC and their Reoxidation Soluble fractions of cell lysates were separately purified over the Ni-NTA resin and analyzed on a gel (FIG. 2A, lanes 1-3). In addition to bands corresponding to monomeric species around 20 kDa, dimeric, trimeric and ladders of higher multimers were observed, indicating formation of multiple intermolecular disulfide bonds, presumably due to misfolding. […]

The target in series [2] is T2, α2NC2 (NC2 domain of the human collagen IX α2 chain) (human).
T2 construct: Expressed as the Trx_α2NC2 fusion and cleaved with thrombin; also called U2
T2 peptide: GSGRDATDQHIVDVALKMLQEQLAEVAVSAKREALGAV
Kind of series: CD at 222 nm, thermal transition at 1.87 µM complex, pH 4.5, bimolecular two-state fit. As to the method:
(§1) FIG. 9. Thermal transitions of the NC2-containing complexes. A, Thermal transition curves of α123NC2-(GPP)_5CC were recorded in 50 mM sodium acetate buffer, pH 4.5, supplemented with 0M (green circles), 1M (red circles for heating and blue circles for cooling), and 2M (cyan circles) guanidine hydrochloride using 7 μM complex concentrations and a 1-mm path length quartz cuvette. The change in collagen triple helical and α-helical contents was monitored at 230 nm with a scan rate of 1° C./min. […] The first transition followed by the increase of the CD signal is associated with the unfolding of the collagen triple helix, whereas the second transition is associated with the unfolding of the NC2 domain. […] The change in α-helical content was monitored at 222 nm with a scan rate of 0.25° C./min. The curves were globally fitted (white lines) as described herein.
(§2) Since the α1NC2 chain is disulfide-linked to the α3NC2 chain, only two products dissociates from the complex upon denaturation and the folding reaction should be considered as bimolecular. According to this and other assumptions (see 1.1.-1.10., above), two transitions using a 10-fold difference in concentrations of the complex were separately globally fitted and yielded similar values of the standard enthalpy, $\Delta H^0$, and the standard entropy, $\Delta S^0$.

Series [3] deals with T2, α2NC2 (NC2 domain of the human collagen …). Kind of series: CD at 222 nm, thermal transition at 18.7 µM complex, pH 4.5, bimolecular two-state fit. The protocol: as §1, §2

B1: α1NC2-(GPP)5CC (peptide)
peptide: GSGYPGRAPTDQHIKQVCMRVIQEHFAEMAASLKRPDSGATGASGPPGPPGPPGPPGPPGPCCGGV
modifications: not fully specified; also: interchain disulfides via Cys62 and Cys63 in the trimer with other chains
notes: Mixed and reoxidized as a His-tagged thioredoxin fusion, then characterized after thrombin cleavage as part of α123NC2-(GPP)5CC; also called Trx_α1NC2-(GPP)5CC (before thrombin cleavage)
Turning to B1, the binding result in series [1] is on record as “binds”.

B2: disulfide-bonded α1NC2-α3NC2 (NC2 domains of the human collagen IX α1 and α3 chains, linked by a disulfide) (other)
chain 1: GSPTDQHIKQVCMRVIQEHFAEMAASLKRPDS
chain 2: GSASEQRIRELCGGMISEQIAQLAAHLRKPLAP
modifications: disulfide I:12-II:12 (inferred)
notes: Part of the α123NC2 complex after removal of His-tagged thioredoxin; also called α1-α3; U13
Take B2: in series [2], the “Tm (midpoint of the coupled unfolding and dissociation)” value worked out at 51.2 ° C; the “ΔH^0 (standard enthalpy of U13+U2 to N)” value was -200 kJ/(mol complex); the “ΔS^0 (standard entropy of U13+U2 to N)” value was -500 J/(mol complex K). Further, in series [3], the “Tm (midpoint of the coupled unfolding and dissociation)” value stood at 65.8 ° C; the “ΔH^0 (standard enthalpy of U13+U2 to N)” value was -203 kJ/(mol complex); the “ΔS^0 (standard entropy of U13+U2 to N)” value is -502 J/(mol complex K).
